Consider one molecule from patent US20260176627A1 (University of Washington, published 2026).

This experiment concerns the target T1, NLS-λN-GFP1-10.
T1 construct: also called LambdaN-GFP1-10; second protein of pCMV::GFP11-NLS-MCP-IRES-NLS-λN-GFP1-10; not shown: my translati
Put plainly: split-GFP complementation, fluorescence in transfected HEK293T cells.

B1: GFP11-NLS-MCP (other, not shown: small tags and cut ends)
chain: MRDHMVLHESVNAAGITASNFTQFVLVDNGGTGDVTVAPSNFANGVAEWISSNSRSQAYKVTCSVRQSSAQKRKYTIKVEVPKVATQTVGGVELPVAAWRSYLNMELTIPIFATNSDCELIVKAMQGLLKDGNPIPSAIAANSGLY
notes: linker and NLS are known only from the DNA; also called first protein of pCMV::GFP11-NLS-MCP-IRES-NLS-λN-GFP1-10; Split-GFP-RNAadaptor (one of the pair)
Take B1: the binding result is “binds”.
